From patent US20220195064A1 (Memorial Sloan Kettering, published 2022)

Legend:
[1] = molecular target: T1, recombinant extracellular domain of murine CD371 (Thr 67-Arg 267) with polyhistidine tag (murine, UniProt Q504P2 67-267); test: phage ELISA, anti-M13 detection
T1 construct: range 67-267; also called mouse homolog of CD371; not shown: polyhistidine tag
T1 sequence (looked up): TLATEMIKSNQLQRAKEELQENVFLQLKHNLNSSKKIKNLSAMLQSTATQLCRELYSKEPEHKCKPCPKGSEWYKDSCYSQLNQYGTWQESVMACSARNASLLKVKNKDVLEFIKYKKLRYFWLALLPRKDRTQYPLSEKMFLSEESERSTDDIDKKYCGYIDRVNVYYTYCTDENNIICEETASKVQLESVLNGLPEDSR
Experimental: (§1) A proprietary naïve, semi-synthetic scFv phage display library was screened for antibodies that bind to the CD371 protein by using standard solid phase phage display panning techniques. Briefly, recombinant CD371 was immobilized on a polystyrene surface followed by blocking with about 5% milk and incubation with the phage library. Subsequent washing, elution and phage amplification steps were performed to complete each round of biopanning. Three rounds of panning were completed using amplified CD371 binder-enriched phage pools from the previous round of panning as input for subsequent rounds.

[2] = molecular target: T2, human CD371 on the cell surface (OCI AML cells; HEK293 cells expressing human CD371) (human, UniProt Q5QGZ9 1-265); test: flow cytometry of monoclonal phage prep on HEK293H cells transfected with human CD371 against wild type HEK293H; detection by anti-M13 mAb and PE anti-mouse
T2 construct: whole, on cells; The transfected construct is not specified further; also called CD371 cells; CD371+ AML cell line OCI
T2 sequence (looked up): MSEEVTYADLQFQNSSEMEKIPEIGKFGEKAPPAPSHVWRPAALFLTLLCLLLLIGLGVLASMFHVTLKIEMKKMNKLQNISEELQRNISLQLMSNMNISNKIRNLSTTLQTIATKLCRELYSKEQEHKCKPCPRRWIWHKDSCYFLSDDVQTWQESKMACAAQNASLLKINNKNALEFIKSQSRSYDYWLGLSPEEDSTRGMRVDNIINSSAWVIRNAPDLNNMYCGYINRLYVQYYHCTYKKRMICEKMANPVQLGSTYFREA
Experimental: Once selected, positive scFv clones are tested for their binding to CD371 (e.g., human CD371) on cell surfaces by flow cytometry. Briefly, phage clones are incubated with HEK293H cells over-expressing CD371. The cells are washed and then incubated with a M13 coat protein mAb. Cells are washed again and labeled with a PE-labeled anti-mouse Fab₂ prior to flow cytometry.

[3] = molecular target: T3, recombinant soluble human CD371 extracellular domain (His 65-Ala 265) with polyhistidine tag (human, UniProt Q5QGZ9 65-265, biotinylated in the scFv BLI measurements (site not stated)); test: phage ELISA on human CD371, anti-M13 detection
T3 construct: range 65-265; also called soluble CD371; recombinant CD371; not shown: polyhistidine tag
T3 sequence (looked up): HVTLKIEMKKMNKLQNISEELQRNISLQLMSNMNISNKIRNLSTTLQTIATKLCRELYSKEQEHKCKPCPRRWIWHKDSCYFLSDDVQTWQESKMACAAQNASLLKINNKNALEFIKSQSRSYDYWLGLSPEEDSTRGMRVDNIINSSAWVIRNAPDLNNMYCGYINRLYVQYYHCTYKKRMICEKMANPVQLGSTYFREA
Experimental: as §1

[4] = molecular target: T3, recombinant soluble human CD371 …; test: BLI, IgG captured with anti-Fc antibody, soluble CD371 as analyte
Source text: (§2) Affinity measurements of the B10 variants determined by biolayer interferometry by capturing the IgG and Fc fusions with anti-Fc antibody, and using soluble CD371 as analyte. For scFv affinity measurements, biotinylated CD371 was captured with streptavidin, and soluble scFv was used as analyte. […] Consistent with the flow cytometry results, the full IgG and the scFv-Fc fusions bound more strongly than the scFvs (Table 8), presumably due to their bivalent interaction, resulting in an avidity effect. Weak binding of the 1B10 scFv in the VH-VL Orientation was observed but a dissociation constant could not be calculated by any curve fit method.

[5] = molecular target: T3, recombinant soluble human CD371 …; test: BLI, Fc fusion captured with anti-Fc antibody, soluble CD371 as analyte
Source text: as §2

[6] = molecular target: T3, recombinant soluble human CD371 …; test: BLI, biotinylated CD371 captured with streptavidin, soluble scFv as analyte
Source text: as §2

B1: B031_P1_PH1D6 monoclonal phage prep (scFv displayed on phage) (scFv, V domains shown)
VH: EVQLLESGGGLVQPGGSLRLSCAASGFTFTDYAMSWVRQAPGKGLEWVSDIDGSGGSTDYADSVKGRFTISRDNSKNTLYLQMNSLRAEDTAVYYCALELGATTVYWGQGTLVTVSS
VL: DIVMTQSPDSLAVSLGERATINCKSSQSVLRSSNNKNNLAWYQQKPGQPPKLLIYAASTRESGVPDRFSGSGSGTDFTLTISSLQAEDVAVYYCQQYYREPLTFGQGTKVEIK
notes: Tested as an scFv on M13 phage
B1: no binding [1]; binds [2]; binds [3].

B2: B10 reformatted to human IgG1 (antibody, V domains shown)
VH: EVQLLESGGGLVQPGGSLRLSCAASGFTFSDYQMSWVRQAPGKGLEWVSGIQGGGGSTYYADSVKGRFTISRDNSKNTLYLQMNSLRAEDTAVYYCAREMWRGDYYSGMDVWGQGTTVTVSS
VL: not shown
notes: Human IgG1; also called 1B10 IgG1; B031_P1_PH1B10 IgG1
B2 gave a Kd [4] of 9.5 nM, a koff [4] of 0.00153 s⁻¹ and a kon [4] of 160000 M⁻¹ s⁻¹.

B3: B10 scFv-Fc fusion, VL-VH orientation (Fc fusion)
chain: DIVMTQSPDSLAVSLGERATINCKSSQSVLDSYNNENNLAWYQQKPGQPPKLLIYWASTRESGVPDRFSGSGSGTDFTLTISSLQAEDVAVYYCQQYTSEPITFGQGTKVEIKGGGGSGGGGSGGGSGGGGSEVQLLESGGGLVQPGGSLRLSCAASGFTFSDYQMSWVRQAPGKGLEWVSGIQGGGGSTYYADSVKGRFTISRDNSKNTLYLQMNSLRAEDTAVYYCAREMWRGDYYSGMDVWGQGTTVTVSS
notes: also called VL-VH-Fc; not shown: Fc region
For B3, the Kd [5] was 7 nM, the koff [5] was 0.00206 s⁻¹ and the kon [5] was 295000 M⁻¹ s⁻¹.

B4: B10 scFv-Fc fusion, VH-VL orientation (Fc fusion)
chain: EVQLLESGGGLVQPGGSLRLSCAASGFTFSDYQMSWVRQAPGKGLEWVSGIQGGGGSTYYADSVKGRFTISRDNSKNTLYLQMNSLRAEDTAVYYCAREMWRGDYYSGMDVWGQGTTVTVSSGGGGSGGGGSGGGSGGGGSDIVMTQSPDSLAVSLGERATINCKSSQSVLDSYNNENNLAWYQQKPGQPPKLLIYWASTRESGVPDRFSGSGSGTDFTLTISSLQAEDVAVYYCQQYTSEPITFGQGTKVEIK
notes: also called VH-VL-Fc; not shown: Fc region
For B4, the Kd [5] was 4.2 nM, the koff [5] was 0.000968 s⁻¹ and the kon [5] was 232000 M⁻¹ s⁻¹.

B5: B10 scFv in the VL-VH orientation (scFv)
scFv: B3 chain
notes: Soluble scFv; also called VL-VH scFv; 1B10 scFv VL-VH
In the case of B5, the Kd [6] is reported as 16 nM, the koff [6] is reported as 0.00952 s⁻¹ and the kon [6] is reported as 599000 M⁻¹ s⁻¹.

B6: B031_P1_PH2A11 monoclonal phage prep (scFv displayed on phage) (scFv, V domains shown)
VH: EVQLLESGGGLVQPGGSLRLSCAASGFTFTSTQMSWVRQAPGKGLEWVSEISGYGGSTYYADSVKGRFTISRDNSKNTLYLQMNSLRAEDTAVYYCAKDTEVSGDAFDIWGQGTMVTVSS
VL: EIVLTQSPGTLSLSPGERATLSCRASQSVDSSNLAWYQQKPGQAPRLLIYGASSRATGIPDRFSGSGSGTDFTLTISRLEPEDFAVYYCQQYRSWPITFGQGTKVEIK
notes: as for B1
B6: no binding [1]; binds [3].

B7: B031_P1_PH2E4 monoclonal phage prep (scFv displayed on phage) (scFv, V domains shown)
VH: EVQLLESGGGLVQPGGSLRLSCAASGFTFTSYYMSWVRQAPGKGLEWVSGISGSGDSTSYADSVKGRFTISRDNSKNTLYLQMNSLRAEDTAVYYCAREAGGDYDSGAFDIWGQGTMVTVSS
VL: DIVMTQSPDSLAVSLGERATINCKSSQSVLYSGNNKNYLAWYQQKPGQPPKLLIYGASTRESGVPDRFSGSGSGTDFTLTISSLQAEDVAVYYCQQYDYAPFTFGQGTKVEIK
notes: as for B1
B7: no binding [1]; binds [3].

B8: B031_P1_PH1B10 monoclonal phage prep (scFv displayed on phage) (scFv, V domains shown)
VH: B2 VH
VL: not shown
notes: Tested as an scFv on M13 phage (supernatant or phage prep)
B8: no binding [1].

B9: B031_P1_PH1C3 monoclonal phage prep (scFv displayed on phage) (scFv, V domains shown)
VH: EVQLLESGGGLVQPGGSLRLSCAASGFTFTSYAMSWVRQAPGKGLEWVSGIDGSGGGTNYADSVKGRFTISRDNSKNTLYLQMNSLRAEDTAVYYCARAYYDILTGYPVDGMDVWGQGTTVTVSS
VL: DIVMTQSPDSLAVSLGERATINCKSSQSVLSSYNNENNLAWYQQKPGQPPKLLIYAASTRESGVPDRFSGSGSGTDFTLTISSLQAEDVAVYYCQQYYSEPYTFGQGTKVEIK
notes: as for B1
B9: no binding [1].

B10: B031_P1_PH2E8 monoclonal phage prep (scFv displayed on phage) (scFv, V domains shown)
VH: EVQLLESGGGLVQPGGSLRLSCAASGFTFSSYAMSWVRQAPGKGLEWVSEIDGEGGYTNYADSVKGRFTISRDNSKNTLYLQMNSLRAEDTAVYYCAREGVDYDILTGYYPYGMDVWGQGTTVTVSS
VL: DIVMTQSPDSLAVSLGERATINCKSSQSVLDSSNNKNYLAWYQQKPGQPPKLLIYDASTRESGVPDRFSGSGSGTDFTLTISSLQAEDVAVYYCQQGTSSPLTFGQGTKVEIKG
notes: as for B1
B10: no binding [1].
